Source: PMC10284691 (2023)
Where two headings read alike, the source gives them in different places.

T1: BPH14–LRR (purified from insect cells) (rice (Oryza sativa), line RI35 carrying …, biotin (NHS-biotin) in the BLI assays; RED-NHS 2nd Generation dye in the MST assays)
T1 chain: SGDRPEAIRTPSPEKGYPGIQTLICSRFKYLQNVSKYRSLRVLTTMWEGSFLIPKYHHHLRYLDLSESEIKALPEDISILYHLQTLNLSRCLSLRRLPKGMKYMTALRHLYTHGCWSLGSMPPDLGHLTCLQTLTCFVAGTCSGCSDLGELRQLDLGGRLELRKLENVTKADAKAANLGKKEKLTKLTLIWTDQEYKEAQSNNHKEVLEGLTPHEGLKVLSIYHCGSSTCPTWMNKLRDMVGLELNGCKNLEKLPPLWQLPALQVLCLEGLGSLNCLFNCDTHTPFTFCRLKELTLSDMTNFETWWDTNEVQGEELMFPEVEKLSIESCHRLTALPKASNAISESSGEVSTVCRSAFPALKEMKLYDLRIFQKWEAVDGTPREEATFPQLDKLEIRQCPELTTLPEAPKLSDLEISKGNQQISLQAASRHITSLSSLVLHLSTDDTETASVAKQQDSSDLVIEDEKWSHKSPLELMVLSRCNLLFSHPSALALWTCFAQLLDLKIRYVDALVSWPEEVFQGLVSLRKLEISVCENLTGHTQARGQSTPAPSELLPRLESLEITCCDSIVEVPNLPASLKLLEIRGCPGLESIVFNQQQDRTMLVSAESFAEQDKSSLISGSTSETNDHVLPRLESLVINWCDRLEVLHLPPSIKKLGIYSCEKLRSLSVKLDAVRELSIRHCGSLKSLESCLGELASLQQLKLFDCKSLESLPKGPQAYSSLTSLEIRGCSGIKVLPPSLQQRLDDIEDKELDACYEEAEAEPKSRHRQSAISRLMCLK


Key:
[1] = target: T1, BPH14–LRR (purified from insect cells); test: BLI
[2] = target: T1, BPH14–LRR (purified from insect cells); test: MST
[3] = target: T1, BPH14–LRR (purified from insect cells); test: BLI
[4] = target: T1, BPH14–LRR (purified from insect cells); test: MST; competition with BISP(26–124) prebound to LRR

| Binder | koff [1] [s⁻¹] | Kd [2] [nM] | koff [3] [s⁻¹] | Ki [4] [nM] |
| --- | --- | --- | --- | --- |
| BISP(26–124) (purified from insect cells) (domain or fragment) SAMRYASGFQNNERQSSEQESYSRSAQSSEKSSSGYQMGEMASAGVGMSSGYGGSGYSSGGGYQQGVGYSGCDSDYSSGGIGGIVNTATGLASSVTGMA | 0.000719 | 56.1 |  |  |
| BISP (purified from insect cells) (natural protein) SAMRYASGFQNNERQSSEQESYSRSAQSSEKSSSGYQMGEMASAGVGMSSGYGGSGYSSGGGYQQGVGYSGCDSDYSSGGIGGIVNTATGLASSVTGMAGGLGGGGGLADVGGVVNTVSGLADVGGLTNTVSGLADVGGVTNTVGGLVNGIAGGGAGGGLLGGVLGGGDGGCGGNCGGNCGGNCGGRGGGGGGLLGGILGGGSGGGRGARVSARVC |  | 9.72 | 0.000341 | 98 |
